From IntAct's records for PubMed 22612223 come the findings set out here.

The experiment has as its target cdc37_human CDC37 (UniProt Q16543).

Chain of cdc37_human CDC37 (Q16543 whole entry): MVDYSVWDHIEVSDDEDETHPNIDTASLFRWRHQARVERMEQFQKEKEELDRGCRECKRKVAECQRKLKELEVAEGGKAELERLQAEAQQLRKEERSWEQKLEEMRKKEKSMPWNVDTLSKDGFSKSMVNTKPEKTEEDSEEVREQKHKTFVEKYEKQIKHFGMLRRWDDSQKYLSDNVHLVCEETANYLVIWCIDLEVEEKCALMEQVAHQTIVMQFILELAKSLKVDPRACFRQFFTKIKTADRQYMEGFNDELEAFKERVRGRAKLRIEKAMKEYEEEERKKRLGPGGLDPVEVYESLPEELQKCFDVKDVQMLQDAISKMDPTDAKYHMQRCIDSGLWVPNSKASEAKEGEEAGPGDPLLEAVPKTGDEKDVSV

On to “Leucine-rich repeat serine/threonine-protein kinase 2 (Homo sapiens), Q5S007 G2385R”, for which the “effect of a mutation on the interaction” value is recorded as “increasing interaction”.
